Test results reported in US9789213B2, “EGFL7 targeting and/or binding polypeptides and methods for inhibiting angiogenesis” (LONDON HEALTH SCIENCES CENTRE RESEARCH INC., priority 2012, dated 2017).
Where no end group is shown, it is not given here. The star is where a group is joined. FITC = O=C1OC2(c3ccc(O)cc3Oc3cc(O)ccc32)c2ccc(NC(=S)*)cc21

What follows are substances tested against T1, recombinant GST-EGFL7 protein (Homo sapiens, UniProt Q9UHF1) (assay: OBOC peptide library screen ('beads on a bead') with secondary cell-based screen). Settings: hit beads from magnetic-bead screen and secondary cell-based screen.
T1 construct: Magnetic nanobeads are then coated with full-length recombinant EGFL7; made in house; host or cells: Spodoptera frugiperda Sf21 (baculovirus)
T1 sequence (Q9UHF1 24-273): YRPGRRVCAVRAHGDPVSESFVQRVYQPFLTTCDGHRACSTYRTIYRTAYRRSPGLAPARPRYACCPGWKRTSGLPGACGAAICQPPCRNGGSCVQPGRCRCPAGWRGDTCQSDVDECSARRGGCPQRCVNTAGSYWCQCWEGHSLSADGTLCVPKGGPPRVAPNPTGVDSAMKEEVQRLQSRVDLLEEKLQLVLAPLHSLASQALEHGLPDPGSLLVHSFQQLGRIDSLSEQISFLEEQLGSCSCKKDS
Type: binding
Description: The present invention also encompasses methods of screening polypeptides to identify those that interact with EGFL7 and modulate and EGFL7 activity and/or function. In a specific aspect, a combinatorial peptide library is screened using a “beads on a bead” approach, as set out in FIG. 1 and described in Cho et al., which is incorporated herein by reference in its entirety. […] Magnetic nanobeads are then coated with full-length recombinant EGFL7, are mixed with the peptide library, and the most highly interacting library bead “hits” are sorted using large format flow cytometry. An on-bead cell binding assay can then be used to validate the peptide hits using human endothelial cells. Validated hit peptides are then sequenced using an in-house MALDI-TOF/MS technique, and their binding affinity to EGFL7 is quantified using surface plasmon resonance (SPR) (Amadei et al. 2009, J. Mass Spectrometry, 45:241-51; U.S. Pat. Nos. 5,510,240; and 7,262,269, each of which is incorporated by reference herein in its entirety).
All fractions containing EGFL7 recombinant protein were pooled together. 30 μg of anti-GST antibody was mixed into the protein solution, and incubated with 370 mg of MagnaBind Protein A/G magnetic beads (Thermo Scientific) for 15 minutes at 4° C. After several washing with wash buffer, the proteins were released from the magnetic beads by boiling in SDS loading buffer, and analyzed by western blot using anti-EGFL7 polyclonal antibody (R&D Systems).
The OBOC peptide library beads were washed extensively using 70% ethanol, distilled water and binding buffer (50 mM Na2HPO4, 150 mM NaCl, 2 mM CaCl2, 0.5M L-Arginine, pH 7.4) before screening. The magnetic beads were mixed with the library beads in a glass vial, and incubated at 37° C. for 1 hour, A strong magnet was placed at the side of the vial, and the library was screened as described in Cho et al. Positive hits were pooled and washed extensively with ethanol and water. A secondary cell-based screen was performed using EGFL7-positive HT1080 fibrosarcoma cells expressing tdTomato, and EGFL7-negative MDA435 breast cancer cells expressing GFP as described in Cho et al. Hit beads were collected and peptides were sequenced on-bead using MALDI TOF MS/MS as described in Cho et al.
Recombinant EGFL7 protein was purified (FIGS. 2A and 2B) and conjugated onto magnetic beads. Western blot analysis was performed to show successful conjugation of purified EGFL7 onto magnetic beads using a polyclonal anti-EGFL7 antibody (FIG. 2C). EGFL7-conjugated magnetic beads were then mixed with a OBOC combinatorial peptide library, and positive hits were isolated using a strong neodynium magnet. […] Beads were examined under an inverted fluorescence microscope, and hit beads that strongly associated with red cells, but had little or no interaction with green cells were isolated manually.

Substance | affinity for EGFL7 in OBOC peptide library screening
AYYEEAYE (EGFL7 interacting peptide) | high affinity
DPYDHEFR (EGFL7 interacting peptide) | high affinity
EWELHAEE (EGFL7 interacting peptide) | high affinity
RYQLHHPR (EGFL7 interacting peptide) | high affinity
RYVDHEDW (EGFL7 interacting peptide) | high affinity
SQSSMYPS (EGFL7 interacting peptide) | high affinity
WYKLHPTM (EGFL7 interacting peptide) | high affinity

These substances were tested on HUVECs (assay: Cell uptake of FITC-labelled peptide by HUVECs with or without EGFL7 siRNA knockdown, flow cytometry). Settings: HUVECs treated with negative siRNA or EGFL7 siRNA; 1 mM, 1 hour at 4° C.
Type: cell-based, human
Method: EGFL7 knockdown in human umbilical vein endothelial cells (HUVECs) was achieved using a siRNA targeting the exon 5 of the protein and INTERFERin transfection reagent (HUVECs-si). Wildtype HUVECs and HUVECs-si cells were seeded onto separate wells in a 6-well tissue culture plate to approximately 80% confluency. The cells were incubated overnight in DMEM containing 10% fetal bovine serum and Pen/Strep at 37° C. with 5% CO2. The media in each well were removed and replaced with pre-chilled PBS. FITC-E7-p72 (FITC-HMYFLLGH; SEQ ID NO: 20) was added onto cells to a final concentration of 1 mM and incubated for 1 hour at 4° C. Cells were detached from the well with EDTA, washed three times with PBS, and fixed with 4% formaldehyde. The uptake of FITC-labeled peptides was analyzed by flow cytometry.

Substance | uptake of fluorescein-labelled peptide
{FITC}-HMYFLLGH [FITC-E7-p72] | dependent on EGFL7 expression
